One data set has as its target α1-antitrypsin (UniProt P01009).

α1-antitrypsin, sequence (P01009 whole entry, looked up): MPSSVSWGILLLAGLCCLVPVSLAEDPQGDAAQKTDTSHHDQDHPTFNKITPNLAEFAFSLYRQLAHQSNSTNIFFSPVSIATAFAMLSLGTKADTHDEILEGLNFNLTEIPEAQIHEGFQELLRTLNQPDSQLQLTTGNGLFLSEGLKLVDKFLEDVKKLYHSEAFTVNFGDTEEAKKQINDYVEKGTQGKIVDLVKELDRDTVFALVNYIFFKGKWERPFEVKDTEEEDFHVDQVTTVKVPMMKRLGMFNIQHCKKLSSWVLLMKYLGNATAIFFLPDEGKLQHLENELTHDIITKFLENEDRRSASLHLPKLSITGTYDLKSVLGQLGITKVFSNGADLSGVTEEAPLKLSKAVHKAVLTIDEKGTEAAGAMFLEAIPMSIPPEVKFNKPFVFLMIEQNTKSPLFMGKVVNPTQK
active MMP9, sequence (chain, as listed by the source): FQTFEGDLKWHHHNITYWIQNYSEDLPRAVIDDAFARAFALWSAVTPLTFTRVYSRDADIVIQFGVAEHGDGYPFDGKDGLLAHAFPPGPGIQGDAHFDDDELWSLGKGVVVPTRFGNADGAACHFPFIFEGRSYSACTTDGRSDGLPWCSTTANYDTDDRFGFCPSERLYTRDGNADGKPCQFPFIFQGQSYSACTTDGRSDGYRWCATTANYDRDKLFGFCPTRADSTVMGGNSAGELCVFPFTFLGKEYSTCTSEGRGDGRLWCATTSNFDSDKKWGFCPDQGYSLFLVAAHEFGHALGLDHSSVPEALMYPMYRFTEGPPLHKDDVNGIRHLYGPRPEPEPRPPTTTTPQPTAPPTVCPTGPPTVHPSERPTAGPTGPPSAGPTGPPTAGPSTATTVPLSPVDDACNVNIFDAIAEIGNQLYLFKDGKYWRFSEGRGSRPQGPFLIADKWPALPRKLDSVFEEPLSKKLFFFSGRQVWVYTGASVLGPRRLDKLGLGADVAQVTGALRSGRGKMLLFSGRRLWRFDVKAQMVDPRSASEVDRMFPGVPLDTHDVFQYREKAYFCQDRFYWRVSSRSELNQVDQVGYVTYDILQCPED
active MMP3, sequence (chain, as listed by the source): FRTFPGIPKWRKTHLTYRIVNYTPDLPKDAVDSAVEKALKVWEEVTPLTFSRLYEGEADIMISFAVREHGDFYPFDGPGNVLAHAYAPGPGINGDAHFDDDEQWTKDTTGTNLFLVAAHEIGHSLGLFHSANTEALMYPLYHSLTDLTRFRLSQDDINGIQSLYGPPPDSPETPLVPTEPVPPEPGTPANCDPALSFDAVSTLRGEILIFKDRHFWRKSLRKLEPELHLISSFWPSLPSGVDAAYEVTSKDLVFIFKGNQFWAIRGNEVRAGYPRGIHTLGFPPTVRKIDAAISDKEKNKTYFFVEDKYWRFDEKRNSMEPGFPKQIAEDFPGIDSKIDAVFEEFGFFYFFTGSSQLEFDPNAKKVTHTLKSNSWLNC

Turning to active MMP3, in the data set with Pro-MMP9, the “activation of pro-MMP9 (appearance of the active MMP9 fragment by Li-Cor Western blot and increase in gelatinolytic activity)” value is listed as “Both proteases activated MMP9 in a dose-dependent manner”.

As for active MMP9, the “cleavage of α1-antitrypsin by Western blot” value with α1-antitrypsin was “In the presence of active MMP9 alone, α1-antitrypsin was cleaved from the active form to the inactive form”.

With active Pseudomonas elastase, the “activation of pro-MMP9 (appearance of the active MMP9 fragment by Li-Cor Western blot and increase in gelatinolytic activity)” value with Pro-MMP9 is “Both proteases activated MMP9 in a dose-dependent manner”.

For the origin of these results see patent publication US20170306050.
